Columns and labels:
Test in all cases: purified protein
Assay type in all cases: biochemical, Cupriavidus necator
purified protein [1] = substrate: O=C(O)C(=O)[C@H](O)[C@@H](O)[C@H](O)CO; conditions: ATP 1.25 mM, Mg2+ 5 mM, Tris-HCl pH 8.0, KCl 50 mM, 25 °C
purified protein [2] = substrate: Nc1ncnc2c1ncn2[C@@H]1O[C@H](COP(=O)(O)OP(=O)(O)OP(=O)(O)O)[C@@H](O)[C@H]1O; conditions: KG 1.25 mM, Mg2+ 5 mM, Tris-HCl pH 8.0, KCl 50 mM, 25 °C
purified protein [3] = substrate: O=C(O)C(=O)[C@@H](O)[C@H](O)[C@H](O)CO; conditions: ATP 1.25 mM, Mg2+ 5 mM, Tris-HCl pH 8.0, KCl 50 mM, 25 °C, sigmoid, Hill n = 1.4
purified protein [4] = substrate: O=C(O)C(=O)C[C@H](O)[C@H](O)CO; conditions: ATP 1.25 mM, Mg2+ 5 mM, Tris-HCl pH 8.0, KCl 50 mM, 25 °C
purified protein [5] = substrate: O=C(O)C(=O)C[C@@H](O)[C@H](O)CO; conditions: ATP 1.25 mM, Mg2+ 5 mM, Tris-HCl pH 8.0, KCl 50 mM, 25 °C

B1: KGUKCnec (2-ketogluconate kinase from C. necator H16) (Cupriavidus necator H16) (protein)
chain: MSTDLDVVTLGEAMLMLVAGEAGPLEGAQTFHKRTAGAETNVAIGLSRLGLKVGWASRLGDDSMARYLLGEMQREGVDCSQVVCEPGERTGFQFKGRVDDGSDPPVEYHRRGSAASRMNPEHLDGRWLRRSRHLHVTGVFPALAAGTQAATRQAIATMQAAGRTISFDPNLRPTLWASPELMRETLNDLAQQCDWVLPGIEEGRFLTGHAEPERIAAFYRARGARLVVVKLGADGAYFDGEAGTGHVEAFSVEHVVDTVGAGDGFAVGVISALLEGRPVRDAVRRGAWIGARAVQVRGDTEGLPTHAQLAAASL
notes: full-length ORF (PCR primers kguK-NdeI 5' […] 3' / kguK-BamHI 5' […] 3'
Question: B1 was tested. Which Km (purified protein [1]) did it give?
Answer: Its Km is 4000 ± 1000 µM.

Question: What about the Vmax (purified protein [1]) of the same protein?
Answer: Its Vmax is 1.9 µmol/min/mg.

Question: And the kcat (purified protein [1])?
Answer: Its kcat is 1.1 ± 0.1 s⁻¹.

Question: What about the kcat/Km (purified protein [1]) of the same protein?
Answer: Its kcat/Km is 246 ± 70 M⁻¹ s⁻¹.

Question: What about the Km (purified protein [2]) of the same protein?
Answer: Its Km is 73 ± 2 µM.

Question: And the Vmax (purified protein [2])?
Answer: The Vmax was 10.2 µmol/min/mg.

Question: And the kcat (purified protein [2])?
Answer: Its kcat is 5.71 ± 0.05 s⁻¹.

Question: And the kcat/Km (purified protein [2])?
Answer: The kcat/Km was 78200 ± 2500 M⁻¹ s⁻¹.

Question: And the K0.5 (purified protein [3])?
Answer: The K0.5 was 0.35 ± 0.03 mM.

Question: What about the Vmax (purified protein [3]) of the same protein?
Answer: Its Vmax is 10.4 µmol/min/mg.

Question: And the kcat (purified protein [3])?
Answer: Its kcat is 5.8 ± 0.2 s⁻¹.

Question: And the kcat/Km (purified protein [3])?
Answer: The kcat/Km was 16800 ± 1300 M⁻¹ s⁻¹.

Question: What about the Km (purified protein [4]) of the same protein?
Answer: The Km was 1400 ± 200 µM.

Question: What about the Vmax (purified protein [4]) of the same protein?
Answer: The Vmax was 18.2 µmol/min/mg.

Question: What about the kcat (purified protein [4]) of the same protein?
Answer: Its kcat is 10.2 ± 0.5 s⁻¹.

Question: What about the kcat/Km (purified protein [4]) of the same protein?
Answer: The kcat/Km was 7370 ± 970 M⁻¹ s⁻¹.

Question: And the Km (purified protein [5])?
Answer: The Km was 25000 ± 4000 µM.

Question: What about the Vmax (purified protein [5]) of the same protein?
Answer: The Vmax was 3.7 µmol/min/mg.

Question: And the kcat (purified protein [5])?
Answer: Its kcat is 2.1 ± 0.2 s⁻¹.

Question: And the kcat/Km (purified protein [5])?
Answer: The kcat/Km was 83 ± 20 M⁻¹ s⁻¹.
